These results are taken from the nanobody polyreactivity screen of Harvey et al. (2022).

The nature of this series: yeast display, Sf9 membrane polyspecificity reagent, FACS + sequencing; frameworks hold sequencing errors. In short, it runs like this: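 A synthetic nanobody library was expressed on Saccharomyces cerevisiae BJ5465 by galactose induction for 36–48 hours. The library was stained for 1 hour at 4 °C with 10% biotinylated, detergent-solubilized Sf9 membrane reagent and enriched with streptavidin microbeads before FACS. Low and high (top ~1%) gates were set on anti-HA fluorescence for expression and streptavidin fluorescence for reagent binding, and each polyreactivity label reflects the gate of origin.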
In the case of “QVQLVESGGGLVQAGGSLRLSCAASGFTFTKYAMGWYRQAPGKERELVAAITSGTSTYYADSVKGRFTISRDNAKYTVYLQMNSLKPEVTAVYYCAAPLYGRYSYGYWGQCTQVTVSS”, the “polyreactivity (PSR sort gate)” value is given as “high polyreactivity”. Next, “QVQLVESGGGLVQAGGSLRLSCAASGFTFTPYAMGWYRQAPGKERELVAAITSTGGSTYYADSVKGRFTISRHNAKNTVYLQMNSLKPEDAAVYYCNAATPYSWGYRRGYWGQGTQVTVSS”: “high polyreactivity”. With “QVQLVESGGGLVQAGGSLRLSCAASGFTFTQYAMGWYRPAPGKECELVAAISRSGGSTYYADSVKGRFTISRDNAKNTVYLQMTSLKPEDTPVYYCAADWRFRYDYWGQGTQVTVSS” the entry was “high polyreactivity”. Next, “QVQLVESGGGLVQAGGSLRLSCAASGFTFTRNAMGWYRQAPGKERELVAAISKRGGTTYYADSVKGRFTISRDNAKNTVYLQMNSLKPEDTAVYYCAKDGGITGGYWGQGTQVTVSS”: “high polyreactivity”. With “QVQLVESGGGLVQAGGSLRLSCAASGFTFTRYAMGWYRQAPGKERELVAAIRWSGGRTYYADSVKGRFTISRDNAKNTVYLQMNSLKPEDTAVYYCYAVFYDPRREYDYWGQGTQVTVSS”, the “polyreactivity (PSR sort gate)” value is reported as “high polyreactivity”.

Regarding “QVQLVESGGGLVQAGGSLRLSCAASGFTFTRYAMGWYRQAPGKERELVAAITTNSGSRTYYADSVKGRFTISRDNAKNTVYLQMNSLKPEDTAVYYCAADGPVVRGYYWGQGTQVTVSS”, the “polyreactivity (PSR sort gate)” value is listed as “high polyreactivity”. As to “QVQLVESGGGLVQAGGSLRLSCAASGFTFTRYAMGWYRQAPGKERELVAVITYSGDTSYADSVKGRFTISRDNAKNTVYLQMNSLKPEDTAVYYCAVERAYYSDTGRYGYDYWGQGTQVTVSS”, the “polyreactivity (PSR sort gate)” value is on record as “high polyreactivity”. Next, “QVQLVESGGGLVQAGGSLRLSCAASGFTFTSFAMGWYRQAPGKERELVAAISARGGRTNYADSVKGRFTISRDNAKNTVYLQKNSLKPEDTAVYYCAADGFRAAYLYDYWGQGTQVTVSS”: “high polyreactivity”; “QVQLVESGGGLVQAGGSLRLSCAASGFTFTYNTMGWYRQAPGKERELVAAISRSGGSTYYADSVKGRFTISRDNAKNTVYLQMNSLKPEDTAVYYCAKQRRDYNGGYWGQGTQVTVSS”: “high polyreactivity”; “QVQLVESGGGLVQAGGSLRLSCAASGFTFTYYAMGWYRQAPGKERELVAAISWSGDSTYYADSVKGRFTISRDNAKNTVYLQMNSLKPEDTAVYYCATEYSHTYDYWGQGTQVTVSS”: “low polyreactivity”. Next, “QVQLVESGGGLVQAGGSLRLSCAASGFTFTYYAMGWYRQAPGKERELVAVISSAGSTYYADSVKGRFTISRDNAKNTVYLQMNSLKPEDTAVYYCNAVGRYYSSGRYGHWGQGTQVTVSS”: “high polyreactivity”. On to “QVQLVESGGGLVQAGGSLRLSCAASGFTFTYYTMGWYRPAPGKERELVAGISRSGGSTYYADSVKGRFTISRDNAKNTVYLQMNSLKPEDTAVYYCFPGKTRLYGYWGQGTQVTVSS”, for which the “polyreactivity (PSR sort gate)” value was “high polyreactivity”. With “QVQLVESGGGLVQAGGSLRLSCAASGFTFTYYVMGWYRQAPGKDRELVAAISQGGGSTYYADSVKGRFTISRDNAKNTVYLQMNSLKPEDTAVYYCAARRVGYGTDRYYGYDSWGQGTQVTVSS” the entry was “high polyreactivity”; with “QVQLVESGGGLVQAGGSLRLSCAASGFTFVAYAMGWYRPAPGKERELVAAIRRTDTSTYYADSVKGRFTISRDNAKNTVYLQMNSLKPEDTAVYYCAADYWRRTYLGFDYWGQGTQVTVSS”, “low polyreactivity”; with “QVQLVESGGGLVQAGGSLRLSCAASGFTFVGYAIGWYRQAPGKERDMVAAITRRGGSTYYADSVKGRFTISRDNAKNTVYLQMNSLKPEDTAVYYCNKSSYRISVPRYDYWGQGTQVTVSS”, “high polyreactivity”. Consider “QVQLVESGGGLVQAGGSLRLSCAASGFTFVINDMGWYRQAPGKERELVADITSGGDTYYADSVKGRFTISRDNAKNTVYLQMNSLKAEDTAVYYCAADIYPDWIYLLYGYWGQGTQVTVSS”, for which the “polyreactivity (PSR sort gate)” value is on record as “low polyreactivity”. “QVQLVESGGGLVQAGGSLRLSCAASGFTFVKNAMGWYRQAPGNERELVAAISQSGGSTYYADSVKGRFTISRDNAKNTVYLQMNSLKPEDTAVYYCAATYYTYWGYRDYYWGQGTQVTVSS”: the “polyreactivity (PSR sort gate)” value is on record as “high polyreactivity”. Next, “QVQLVESGGGLVQAGGSLRLSCAASGFTFVLYAMGWYRQAPGKERELVADITEGGDNTYYADSVKGRFTISRDNAKNTVYLQMNSLKPEDTAVYYCNARASRLYPPYDYWGQGTQVTVSS”: “high polyreactivity”; “QVQLVESGGGLVQAGGSLRLSCAASGFTFVNNAMGWYRQAPGKERELVAAISGGGTTNYADSVKGRFTISRDNAKNTVYLQMNSLKPEDTAVYYCAARRYFGLWYFWYDYWGQGTQVTVSS”: “high polyreactivity”.

For “QVQLVESGGGLVQAGGSLRLSCAASGFTFVNYAMGWYRQAPGKERELVAAISFRSARTYYADSVKGRFTISRDNAKNNVYLQMNSLKPEDTAVYYCAARVSRRFDYWGQGTQVTVSS”, the “polyreactivity (PSR sort gate)” value is reported as “high polyreactivity”. With “QVQLVESGGGLVQAGGSLRLSCAASGFTFVPYAMGWYRQAPGKEREFVATISWSAGRTYYADSVKGRFTISRDNAKNTVYLQMNSLKPEDTAVYYCNARQWCQRYSKVRYDFWGQGTQVTVSS” the entry was “high polyreactivity”. With “QVQLVESGGGLVQAGGSLRLSCAASGFTFVQYAMGWYRQAPGKERELVATISKSGGITYYADSVKGRFTISRDNAKNTVFLQMNSLKPEVTAVYYCAAAWYYSSRGFHATWGHDYWGQGTQVTVSS”, the “polyreactivity (PSR sort gate)” value is on record as “low polyreactivity”.

Consider “QVQLVESGGGLVQAGGSLRLSCAASGFTFVRNALGWYRPAPGKERELVAAITDAGRTTYADSVKGRFTISRDNAKNTVYLQMNSLKPEDTAVYYCAKGKWWGWPWYSMDYWGQGTQVTVSS”, for which the “polyreactivity (PSR sort gate)” value is given as “low polyreactivity”. Next, “QVQLVESGGGLVQAGGSLRLSCAASGFTFVRYAMGWYRQAPGKDRELVAAISKSGGRTYYTDSVKGRFTISRDNAKTTVYLQMNSLKPEDTAVYYCAADPVSDYYGYGYWGQGTQVTVSS”: “high polyreactivity”; “QVQLVESGGGLVQAGGSLRLSCAASGFTFVSNAMGWYRQAPGKERELVAAITYSGTRTYYADSVKGRFTISRDNAKNTVYLQMNSLKPEDTAVYYCAARRGYASAYYYWGQGTQVTVSS”: “high polyreactivity”.

As to “QVQLVESGGGLVQAGGSLRLSCAASGFTFVSNAMVWSRQAPGKERELVADITSDGSTNYADSVKGRFTISRDNAKNTVYLQMNSLKPEDTAVYHCATDQRSNTWVNQFDYWGQGTQVTVSS”, the “polyreactivity (PSR sort gate)” value is given as “low polyreactivity”. With “QVQLVESGGGLVQAGGSLRLSCAASGFTFVSYAMGWYRQAPGKERELVAAISSRVVSTYYADSVKGRFTISRDNAKNTVYLQMNSLKPEDTAVYYCATDRYAYKLYDYWGQGTQVTVSS” the entry was “low polyreactivity”. With “QVQLVESGGGLVQAGGSLRLSCAASGFTFVSYAMGWYRQAPGKERELVAVIDNSDGDTYYADSVKGRFTISRDNAKNTVYLQMNSLKPEDTAVYYCAADAVIEWTDWYSAWWYYYWGQGTQVTVSS” the entry was “low polyreactivity”; with “QVQLVESGGGLVQAGGSLRLSCAASGFTFVVNAMAWYRQAPGKEREFVAAIRQSGGSTYYADSVKGRFTISRDNAKNTVYLQMNSLKPEDTAVYYCNAEDWGYGYDYWGQGTQVTVSS”, “low polyreactivity”.

For the sequence “QVQLVESGGGLVQAGGSLRLSCAASGFTFVVYAMGWYRQAPGKERELVAAIRRTGGSTYYADSVKGRFTISRDNAKNTVYLQMNSLKPEDTAVYYCAAHAISYQSRYRYRYGSVDYWGQGTQVTVSS”, the “polyreactivity (PSR sort gate)” value is given as “high polyreactivity”. Next, “QVQLVESGGGLVQAGGSLRLSCAASGFTFVYYAMGWYRQAPGKEREFAYYADSVKGRFTISRDNAKNTVYLQMNSLKPEDTAVYYCNAAEDEGDRPITQVGYDYWGQGTQVTVSS”: “low polyreactivity”. With “QVQLVESGGGLVQAGGSLRLSCAASGFTFVYYAMGWYRQAPGKERELVAAISRGGSTYYADSVKGRFTISRDNAKNTVYLQMNSLKPEDTAVYYCNAKKSGHYVSYPAYDYWGQGTQVTVSS” the entry was “low polyreactivity”; with “QVQLVESGGGLVQAGGSLRLSCAASGFTFVYYTMGWYRQAPGKERELVAAITSGGRTYYADSVKGRFTISRDNAKNTVYLQMNSLKPEDTAVYYCAAPDRYRGYIGYGYWGQGTQVTVSS”, “high polyreactivity”. With “QVQLVESGGGLVQAGGSLRLSCAASGFTFWAYAMGWYRQAPGKERELVAAISGSGGNTYYADSVKGRFTISRDNAKNTVYLQMNSLKPEDTAVYYCAVEDAGQGGDYWGQGTQVTVSS” the entry was “low polyreactivity”.

Regarding “QVQLVESGGGLVQAGGSLRLSCAASGFTFWAYAMGWYRQAPGKERELVAVISGSGGRTYYADSVKGRFTISRDNAKNTVYLQMNSLKPEDTAVYYCNARYPRLHRTYNYWGQGTLVTVSS”, the “polyreactivity (PSR sort gate)” value was “high polyreactivity”. With “QVQLVESGGGLVQAGGSLRLSCAASGFTFWDNAMGWYRQAPGKERELVAAISRRGGTTYYADSVKVRFTISRDNAKNTVYLQMNSLKPEDTAVYYCNKAFSLQIYATGMGYWGQGTQVTVSS”, the “polyreactivity (PSR sort gate)” value is “high polyreactivity”. Next, “QVQLVESGGGLVQAGGSLRLSCAASGFTFWDYDLGWSRQATGKERELVAAISDNDGSTDYADSVKGRITISRDNVKNTVFLQMNRLKPEESAVYYCNAEIEMPSKEGDYWGLGTQVTVSS”: “low polyreactivity”; “QVQLVESGGGLVQAGGSLRLSCAASGFTFWDYTMGWYRQAPAKERELVAAINRGGNTYYADSVKGRFTISRDNAKNTVYLQMNSLKPEDSADYYCAARRRSRQYRYDYWGQGTQVTVSS”: “high polyreactivity”.

Consider “QVQLVESGGGLVQAGGSLRLSCAASGFTFWGNAMGWYRQAPGKERELVAAISRSGGRTYYADSVKGRFTISRDNAKNTVYLQMNSLKPEDTAVYYCAAGSSHHFDYEGGYWGQGTQVTVSS”, for which the “polyreactivity (PSR sort gate)” value is on record as “low polyreactivity”. Take “QVQLVESGGGLVQAGGSLRLSCAASGFTFWKYAMGWYRQAPGKEREFVPAISWSGGNTYYADSVKGRFTISRDNAKNTVYLQMNSLKPEDTADYYCARRGRYYLYTDDYDYWGQGTQVTVSS”: the “polyreactivity (PSR sort gate)” value is listed as “high polyreactivity”. With “QVQLVESGGGLVQAGGSLRLSCAASGFTFWKYSMGWYRQAPGKERELVATITSSGDNTYYADSVKGRFTISRDNAKNTVYLQMNSLKPEDTAVYYCAADNGYHYNFDYWGQGTQVTVSS” the entry was “low polyreactivity”.
